Reference: paper PMC9085972

Biological target: V5-HSP70 (UniProt P0DMV8)
Test: co-IP

UniProt P0DMV8, sequence (P0DMV8 whole entry): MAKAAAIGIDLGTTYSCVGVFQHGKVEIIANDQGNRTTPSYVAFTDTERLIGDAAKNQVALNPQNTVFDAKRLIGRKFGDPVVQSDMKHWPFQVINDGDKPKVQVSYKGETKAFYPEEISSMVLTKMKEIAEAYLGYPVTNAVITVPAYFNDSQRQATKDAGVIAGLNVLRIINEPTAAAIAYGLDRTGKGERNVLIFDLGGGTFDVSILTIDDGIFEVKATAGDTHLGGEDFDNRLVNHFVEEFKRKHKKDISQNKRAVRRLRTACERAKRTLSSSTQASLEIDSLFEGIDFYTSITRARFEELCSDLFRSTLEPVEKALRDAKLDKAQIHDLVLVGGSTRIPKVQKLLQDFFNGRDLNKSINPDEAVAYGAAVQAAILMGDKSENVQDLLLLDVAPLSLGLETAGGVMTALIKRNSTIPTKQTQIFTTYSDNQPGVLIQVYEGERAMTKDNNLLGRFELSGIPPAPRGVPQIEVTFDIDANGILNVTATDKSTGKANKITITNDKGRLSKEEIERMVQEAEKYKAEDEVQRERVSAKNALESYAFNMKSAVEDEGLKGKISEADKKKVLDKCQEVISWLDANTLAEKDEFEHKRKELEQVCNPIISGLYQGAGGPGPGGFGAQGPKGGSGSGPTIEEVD

With “BAG3 with L462P mutation (pCDH-L462P BAG3) (from UniProt O95817 1-575) (natural protein)” the decrease of the association relative to WT BAG3 was > 50%.
